Test: yeast display, Sf9 membrane polyspecificity reagent, FACS + sequencing; frameworks hold sequencing errors
How it was run: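 A synthetic nanobody library was expressed on Saccharomyces cerevisiae BJ5465 by galactose induction for 36–48 hours. The library was stained for 1 hour at 4 °C with 10% biotinylated, detergent-solubilized Sf9 membrane reagent and enriched with streptavidin microbeads before FACS. Low and high (top ~1%) gates were set on anti-HA fluorescence for expression and streptavidin fluorescence for reagent binding, and each polyreactivity label reflects the gate of origin.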

Sequence	polyreactivity (PSR sort gate)
QVQLVESGGGLVQAGGSLRLSCAASGSIFYAYAMGWYRQAPGKESELVAVISRGGITNYADSVKGRFTISRDNAKNTVYLQMNSLKPEDTAVYYCAAATSAWGYLRRYGYWGQGTQVTVSS	low polyreactivity
QVQLVESGGGLVQAGGSLRLSCAASGFTFDGYAMGWDRQAPGKERELVAAISGGGSTYYADSVKGRFTISRDNAKNTVYLQMNSLKPEDTAVYYCAVVYRYRTRSRSYFLPFDYWGQGTQVTVSS	high polyreactivity
QVQLVESGGGLVQAGGSLRLSCAASGSTFLRYAMGWYRQAPGKERELVAAITASGGSTYYADSVKGRFTISRDNAKNTVYLEMNSLKPEDTAVYYCAADGRYIGKNSHDLWIYGYYYWGQGTQVTVSS	low polyreactivity
QVHLVESGGGVLQAGVSLRLSCAASGFTFYGNAMGWYRQAAGKERELVAANSGRGGSTYYADSVKGRFTISRDNEKYTVYLHMNSLKPEDTAVYYCDIYVSWPLYYYWGQGTQVTVSS	low polyreactivity
QVQLVESVGGLVQAGGTRRLSCDASGRTFGLNVMGWYRHAPGKERELVASIRNIGGSTYYADSVKWRFTISCDNAKNTVYLQMNSLKPEDTAVYYCAADYNLVVQGYDYWGQGTQVTVSS	high polyreactivity
QVQLVESGGGLVQAGGSLRLSCAASGLTFMYYAMGWYRQAPGKERELVAAISKGGGSTYYADSVKGRFTISRDNAKNTVYLQMNSLKPEDTAVYYCNADKVTRVTYWDDSWGLGTQVTVSS	high polyreactivity
QVQLVESGGGLVQAGGSLRLSCAASGFIFYSYAMGWYRQAPGKEREFVASISGRTGSTYYADSVKGRFTISRDNAKNTVYLQMNSLKPEDTAVYYCNARIVHSFRYDYWGQGTQVTVSS	low polyreactivity
QVQLVESGGGLVQAGGSLRLICAASGSTFSSYFMGWYRQAPRKERKLVAAITRSGVYTYYADSVKGRFTISRDNAKNTVYLQMNSLKPEDTAVYYCARRAKGAYWNEYNYWGQGTQVTVSS	high polyreactivity
QVQLVESGGGLVQAGGSLRLSCAASGRTFWYYAMGWSRQAPGKERELVAGITFTGGRTYYADSVKGRFTISRDNAKNTVYLQMNSLKPEDTAVYYCAAAGLDVGRKDRDGYWGQGTQVTVSS	low polyreactivity
QVQLVESGGGLVQAGGSLRLSCAASGIIFRVYTMGWYRQAPGKERELVAGISSGDSTSYADSVKGRFTISRDNAKNTVYLQMNSLKPEDTAVYYCNAVAYYSYSANFRNAYDYWGQGTQVTVSS	low polyreactivity
QVQLVESGGGLVQAGGSLRLSCAASGRTFWVYAMGWNRQATGKERELVATISKSAGITSYADSVKGRFTFSRDNAKNTVYLQMNSLKPEDTAVYYCAADKSYRRVYYWGQGTQVTVSS	low polyreactivity
QVQLVESGGGLVQAGGSLRLSCAASGFTFAYYAMGWYRQAPGKERELVASISYNGGITNYADSVKGRFTISRDNAKNTVYLQMNSLKPEDTSVYYCNAVPHYYWRFDYWGQGTQVTVSS	low polyreactivity
QVQLVESGGGLVQAGGSLRLSCAASGFTFVRNVMGWYRQAPGKERELVAAINTGGTTDYADSVKGRFTISRDNAKNTVYLQMNSLKPEDTAVYNCNADYDSQYHYLLRYDYWGQGSQVTVSS	low polyreactivity
QVQLVESGGGLVQAGGSLRLSCAASGSIFAGYAMGWYRQAPGKERELVATITSGGSTNYADSVKGRFTISRDNAKNTVYLQMNSLKPEDTAVYYCAADVEDSIPSSYTGGEYDYWGQGTQGTVSS	low polyreactivity
QVQLVESGGGLVQAGGSLRLSCAASGRTIGINAMGWYRQAPGKERELVAVISFGDGGTYYADSVKGRFTISRDNAKNTVYLQMNSLKPEDTEVYYCATDYQSTSVWGGHFVINPYDYWGQGTQVTVSS	low polyreactivity
QVQLVESGGGLVQAGGSLRLSCAASGSTIKPYTMGWYRPAPGKERELVAAITSGGRTYYADSVKGRFTISRDNAKNTVYLQMNSLKPEDTAVYYCNARRYLWLRRYDYWGQGTQVTVSS	high polyreactivity
QVQMQESGGGLVQAGGSLRLSCAASGSISRYYDMGWYRQAPGKEREFVAGISGGAITYYADSVKGRFTISRDNAKNSVYLQMNSLNREDTAVYYCAADTGVYQYHSYWGQGTQVTVSS	low polyreactivity
QVQLVESGGGLVQAGGSLRLSCAASGSIFGINAMGWYRQAPWKERELVAAITSDGSTYYADSVKGRFTISRDNAKNTVYLQMNSLNPEDTAVYYCAAYSWYYTSRYDYWGQGTQVTVSS	low polyreactivity
QVQLVESGGGLVQAGGSLRLSCAASGSIFWNYTMGWYRPAPGKERELVAAITWSGSSTYYADSVKGRFTISRDNAKNTVYLQMNSLKPEDTAVYYCAKDGSGTYEFDYWGQGTQVTVSS	low polyreactivity
QVQLVESGGGLVQAGGSIRLSCAASGSIFWYNAMGWYRQAPGKERELVAGITSGGDTNYADSVKGRFTISRDNAKNTVYLQMNRLKPEDTAVYYCAKRWDGGRRYDYWGQGTQVTVSS	low polyreactivity
QVQLVESGGGLVQAGGSLRLSCPASGIIFDRNAMGWYRQAPVKERELVAAITGSGGSTYYADSVKGRFTISRDNAKNTVYLQMNSLKPEDTAVYYCAATYLSRWTLYDYWGQGTQVTVSS	high polyreactivity
QVQLVESGGGLVQAGGSLRLSCAASGFIYTRNAMGWDRQAPGQERELVAAITSSGGSTYYADTVKGRFTISRDNAKNTVYLQMNSLKREDTAVYYCARGKSVGFNYWGQGTQVTVSS	high polyreactivity

Sequence	polyreactivity (PSR sort gate)
QVQLVESGGGLVQAGGSLRLSCAASGFTFSMYGMGWYRKAPGKERELVAAIRSGGSTNYADSVKGRFTISRDNAKNTVYLQMNSLKPEDTAVYYCAADVIPDGVKKPRMYYWGQGTQVTVSS	low polyreactivity
QVQLVESGGGLVQAGGSLRLSCAASGSTILYYAMGWYRPAPGKERELVAAITWSGGPTYYADSVKGRFTISRDNAKMSGYLLMTSLKPEDTAVYYCNKADPWLRSTALNPGLYDYWGQGTQVTVSS	high polyreactivity
QVQLEESGGGLVQAGGSLRLSCAASGRIFPTYVMGWYRQAPGKERELVAAITSIDGRTYYADSVKGRFTISRDNAKNTVYLQMNSLKPEDTAVYYCAADYDYLSISEGYYWGQGTQVTVSS	low polyreactivity
QVQLVESGGGLVQAGGSLRLSCAASGSIFNPNAMGWYRQAPGKERELVAAISYSDATTYYADSVKGRFTISRDNAKNTVYLQMNSLKPEDTAVYYCAAEPAAGDYDYWGQGTQVTVSS	high polyreactivity
QVQLVESGGGLVQAGGSLRLSCAASGSIFWSYAMGWYRQAPGKERELVAVINWSGGSTYYADSVKGRFTISRDNAKNTVYLQMTSLKPEDTAVYYCNKDLGPTKRPFTFDYWGQGTQVTVSS	low polyreactivity
QVQLVESGGGLVQAGGSLRLSCAASGSTFTYYAMGWYRQAPGKERELVAAISSNGGSTSYADSVKGRFTISRDNAKNTVYLPMNRLKPEDTAVYYCAVYKWSTRVSQYRYDYWGQGTQVTVSS	high polyreactivity
QVQLVESGGGLVQAGGSLRLSCDASGRTFGQNAMGWYRQAPGKERELVAGIDWSCGNTYYADSVKGRFTISRDNAKNTVYLQMNSLKPEDTAVYYCNTEGGRDTDWYDYWGQGTQVTVSS	low polyreactivity
QVQLVESGGGLVQAGGSLRLSCAASGRTFHAYAMGWSRQAPGKGRELVAAITRTGTTHYADSVKGRFTISRDNAKNTVYLQMNSLKPEDTAVYYCAAQHVRVDAQFVLQGYDYWGQGTQVTVSS	low polyreactivity
QVQLVESGGGLVQAGGSLRLSCAASGSIFGYYTMGWYRQAPGKERELVAAISRRGGSTYYADSVKGRFTISRDNAKKTVYLQMNSLKPEDTAVYYCAADVARSRHFEMDYWGQGTQVTVSS	high polyreactivity
QVQLVESGGGLVHAGGSLRLSCAASGITFYLYTMGWYRQAPGKERELVATITSGASTSYADSVKGRFTISRDNAKNTFYLQMNSLNPEDTAVYYCAARRTRVTGRYSVYAFDYWGQGTQVTVSS	low polyreactivity
QVQLVESGGGLVQAGGSLRLSCAASGLTFYSNSMGWYRPAPGKERELVAVISADGASTYYADSVKGRFTISRDNAKNTVYLQMNSLKPEDTAVYYCAARVSARGKGYYWGQGTQVTVSS	high polyreactivity
KVQLVESGGGLVQAGGSLRLSCAASGITSSYSAMVWYRQAPGKERELVAAITSSGGSTYYADSVKGRFTISRDNAKNTVYLQMNSLKPEVTAVYYCAARIGQYKAHTRINQYYIRYYWGQGTQVSVSS	low polyreactivity
QVQLVESGGGLVQAGGSLRLSCAASGRTLYYYAMGWYRQAPGKERELVAAITRSGGSTYYADSVKGRFTISRDNAKNTVYLQMISLKPEDTEVYYFNKYGYKGGLGYDYWGQGTQVTVSS	high polyreactivity
QVQLVESGGGLVQAGGSLRLSCAASGRTFYVNAMGWYRQAHGKERELVASITSGGSTYYADSVKGRFTISRDNAKNTVYLQMNSLKPEDTAVYYCAARWVQRLRHYIFYYWGQGTQGTVSS	high polyreactivity
QVQLVDSGGGLVQAGGTLRLSCAASGRIFYRYAMGWYRQAPGKERELVASITRSGITHYADSVKGRFTISRDNAKNTVYLQMNSLKPEDTAVYYCKARRGSPAPYDYWGQGTQVTVSS	high polyreactivity
QVQLVESGGGLVQAGGSLRLSCAASGFTFVKNAMGWYRQAPGKERELVAAITGSAGRTYYADSVKGRFTISRDNAKNTVYLQMNSLKPEDTAVYYCAAPRFAAPRRIGYDWGQGTQVTVSS	high polyreactivity
QVQLVESGGGLVQAGGSLRLSCAASGNTFYTYAMGWYRQAPGKERELVAAITSGGRTYADSVKGRFTISRDNAKNTVYLQMNSLKPEDTEVYYCAAEFPGFYYVYPGDYWGQGTQVTVSS	low polyreactivity
QVQLVESGGGLVQAGGSLRLSCAASGIIFRYYAMGWYRQAPGKERELVAAITWSGGTYYADSVKGRFTISRDNAKKTVYLQMNSLKPEETAVYYCAAVYYGYRDRTDYGYWGQGTQVTVSS	high polyreactivity
QVQLVESGGGLVQAGGSLRLSCAAYGRIFRYYAMGWYRQAPGKERELVVAISRSGSSTYYADSVKGRFTISRDNAKNTVYLQMNSLKPEDTAFYYCAAKLADQTRGTTSDSWGQGTQVTVSS	high polyreactivity
QVQLVESGGGLVQAGGSLRLSCAASGSTFYYNAMGWYRQAPGQERELVAAITSGGGTNYADSVKGRFTISRDNAKNTVYLQLNSLKPEDTAVYYCAADIYPLAIGAFRDDYWGQRTQVTVSS	low polyreactivity
QVQLVESGGGLVQAGGSLRLSCAASGSTFRNNAMGWYRQAPGKETELVAAISFSSGRTYYADSVKGRFTISRDYAKNTVYLQMNSLKPEDTAVYYCAALQYRRRPYGAVERYDYWGQGTQVTVSS	high polyreactivity
